# Measurements taken from patent US20160052997A1.
# pKd: −log10 of the molar value. “And” between values parts separate entries of the source, which are not always exact repeats. Equal entries are not always repeated. Where two headings read alike, the source gives them in different places.
# Key:
# [1] = target: purified recombinant HA protein of H3N2 (A/Brisbane/10/07) (Influenza A virus A/Brisbane/10/07 (H3N2))
# [2] = target: purified recombinant HA protein of H1N1 (A/Texas/05/09) (Influenza A virus A/Texas/05/09 (H1N1))
# [3] = target: purified recombinant HA protein of H1N1 (A/Ohio/07/09) (Influenza A virus A/Ohio/07/09 (H1N1))
# [4] = target: purified recombinant HA protein of H3N2 (A/Wisconsin/67/05) (Influenza A virus A/Wisconsin/67/05 (H3N2))
# [5] = target: purified recombinant HA protein of H3N2 (A/Philippines/2/82) (Influenza A virus A/Philippines/2/82 (H3N2))
# [6] = target: purified recombinant HA protein of H1N1 (A/Texas/05/09) (Influenza A virus A/Texas/05/09 (H1N1)); experiment: SPR, Biacore T200, HA captured via anti-6x his tag antibody, 25 C
# [7] = target: purified recombinant HA protein of H3N2 (A/Philippines/2/82) (Influenza A virus A/Philippines/2/82 (H3N2)); experiment: as above
# [8] = target: purified recombinant HA protein of H3N2 (A/Brisbane/10/07) (Influenza A virus A/Brisbane/10/07 (H3N2)); experiment: as above
# [9] = target: purified recombinant HA protein of H5N1 (A/Vietnam/1203/04) (Influenza A virus A/Vietnam/1203/04 (H5N1)); experiment: as above
# [10] = target: purified recombinant HA protein of H7N7 (A/England/268/96) (Influenza A virus A/England/268/96 (H7N7)); experiment: as above
# [11] = target: purified recombinant HA protein of H1N1 (A/Ohio/07/09) (Influenza A virus A/Ohio/07/09 (H1N1)); experiment: as above
# [12] = target: purified recombinant HA protein of H7N9 (A/Shanghai/1/2013) (Influenza A virus A/Shanghai/1/2013 (H7N9)); experiment: as above
# [13] = target: purified recombinant HA protein of H3N2 (A/Wisconsin/67/05) (Influenza A virus A/Wisconsin/67/05 (H3N2)); experiment: as above
# [14] = target: purified recombinant HA protein of H7N9 (A/Anhui/1/2013) (Influenza A virus A/Anhui/1/2013 (H7N9)); experiment: as above
# [15] = target: purified recombinant HA protein of H7N9 (A/Shanghai/1/2013) (Influenza A virus A/Shanghai/1/2013 (H7N9))
# [16] = target: purified recombinant HA protein of H7N9 (A/Anhui/1/2013) (Influenza A virus A/Anhui/1/2013 (H7N9))
# [17] = target: purified recombinant HA protein of H7N7 (A/England/268/96) (Influenza A virus A/England/268/96 (H7N7))
# [18] = target: purified recombinant HA protein of H5N1 (A/Vietnam/1203/04) (Influenza A virus A/Vietnam/1203/04 (H5N1))
# [19] = target: HA of Anhui/1/05 (H5N1) virus (Influenza A virus A/Anhui/1/05 (H5N1)); experiment: cell-based or functional assay
# [20] = target: HA of A/Ohio/07/2009 (H1N1) virus (Influenza A virus A/Ohio/07/2009 (H1N1)); experiment: cell-based or functional assay
# [21] = target: HA of A/Solomon Islands/2006 (H1N1) virus (Influenza A virus A/Solomon Islands/3/2006 (H1N1)); experiment: cell-based or functional assay
# [22] = target: HA of A/Shanghai/2/2013 (H7N9) virus (Influenza A virus A/Shanghai/2/2013 (H7N9)); experiment: cell-based or functional assay
# [23] = target: HA of A/Texas/05/2009 (H1N1) virus (Influenza A virus A/Texas/05/2009 (H1N1)); experiment: cell-based or functional assay
# [24] = target: HA of A/Ann Arbor/6/60 ca (H2N2) virus (Influenza A virus A/Ann Arbor/6/60 ca (H2N2)); experiment: cell-based or functional assay
# [25] = target: HA of A/ck/HK/G9/97 (H9N2) virus (Influenza A virus A/ck/HK/G9/97 (H9N2)); experiment: cell-based or functional assay
# [26] = target: HA of A/PuertoRico/8/34 (H1N1) virus (Influenza A virus A/PuertoRico/8/34 (H1N1)) (UniProt P03452); experiment: cell-based or functional assay
# [27] = target: HA of A/Sydney/5/97 (H3N2) virus (Influenza A virus A/Sydney/5/97 (H3N2)); experiment: cell-based or functional assay
# [28] = target: HA of A/Anhui/1/2013 (H7N9) virus (Influenza A virus A/Anhui/1/2013 (H7N9)); experiment: cell-based or functional assay
# [29] = target: HA of A/Perth/16/09 (H3N2) virus (Influenza A virus A/Perth/16/09 (H3N2)); experiment: cell-based or functional assay
# [30] = target: HA of A/Beijing/32/92-R-H3N2 PR8 virus (Influenza A virus A/Beijing/32/92 (H3N2)); experiment: cell-based or functional assay
# [31] = target: HA of A/Ohio/83 (H1N1) virus (Influenza A virus A/Ohio/83 (H1N1)); experiment: cell-based or functional assay
# Sequence of CT149 (antibody) (VH): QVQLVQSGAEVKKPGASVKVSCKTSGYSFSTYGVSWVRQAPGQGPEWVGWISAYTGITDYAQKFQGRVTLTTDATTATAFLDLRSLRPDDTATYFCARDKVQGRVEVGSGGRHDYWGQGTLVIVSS
# Sequence of CT149 (antibody) (VL): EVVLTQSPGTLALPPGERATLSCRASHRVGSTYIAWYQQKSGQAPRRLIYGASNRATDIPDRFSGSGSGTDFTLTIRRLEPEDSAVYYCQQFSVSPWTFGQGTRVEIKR
substance,measurement,setting,value
CT149 (antibody),pKd,[1],8.74
same,pKd,[2],7.47
same,pKd,[3],7.29
same,pKd,[4],7.05
same,pKd,[5],10.34
same,pKd,[6],7.47
same,koff,[6],0.0558 s⁻¹ and 0.0562 s⁻¹
same,kon,[6],1.66e+06 M⁻¹ s⁻¹ and 1.65e+06 M⁻¹ s⁻¹
same,pKd,[7],10.30 and 10.39
same,koff,[7],1.47e-05 s⁻¹ and 1.17e-05 s⁻¹
same,kon,[7],292000 M⁻¹ s⁻¹ and 285000 M⁻¹ s⁻¹
same,pKd,[8],8.75 and 8.73
same,koff,[8],0.000316 s⁻¹ and 0.000319 s⁻¹
same,kon,[8],179000 M⁻¹ s⁻¹ and 173000 M⁻¹ s⁻¹
same,pKd,[9],8.53
same,koff,[9],0.00391 s⁻¹ and 0.00386 s⁻¹
same,kon,[9],1.32e+06 M⁻¹ s⁻¹
same,pKd,[10],8.36 and 8.35
same,koff,[10],0.00176 s⁻¹ and 0.0018 s⁻¹
same,kon,[10],401000 M⁻¹ s⁻¹ and 406000 M⁻¹ s⁻¹
same,pKd,[11],7.29
same,koff,[11],0.0379 s⁻¹ and 0.0387 s⁻¹
same,kon,[11],746000 M⁻¹ s⁻¹ and 747000 M⁻¹ s⁻¹
same,pKd,[12],9.85 and 9.81
same,koff,[12],0.0028 s⁻¹ and 0.00285 s⁻¹
same,kon,[12],1.97e+07 M⁻¹ s⁻¹ and 1.83e+07 M⁻¹ s⁻¹
same,pKd,[13],7.07 and 7.04
same,koff,[13],0.00723 s⁻¹ and 0.00745 s⁻¹
same,kon,[13],84100 M⁻¹ s⁻¹ and 81600 M⁻¹ s⁻¹
same,pKd,[14],9.78 and 9.70
same,koff,[14],0.00326 s⁻¹ and 0.00316 s⁻¹
same,kon,[14],1.98e+07 M⁻¹ s⁻¹ and 1.57e+07 M⁻¹ s⁻¹
same,pKd,[15],9.83
same,pKd,[16],9.74
same,pKd,[17],8.36
same,pKd,[18],8.53
CT-P27,"EC50, microneutralization test",[19],8.02 µg/mL
same,"EC50, microneutralization test",[20],0.29 µg/mL
same,"EC50, microneutralization test",[21],0.27 µg/mL
same,"EC50, microneutralization test (Contract Lab A)",[22],3.55 µg/mL
same,"EC50, microneutralization test (Contract Lab B)",[22],13.1 µg/mL
same,"EC50, microneutralization test",[23],2.05 µg/mL
same,"EC50, microneutralization test",[24],12.7 µg/mL
same,"EC50, microneutralization test",[25],5.09 µg/mL
same,"EC50, microneutralization test",[26],0.67 µg/mL
same,"EC50, microneutralization test",[27],6.53 µg/mL
same,"EC50, microneutralization test (Contract Lab A)",[28],2.38 µg/mL
same,"EC50, microneutralization test",[29],3.99 µg/mL
same,"EC50, microneutralization test",[30],3.1 µg/mL
same,"EC50, microneutralization test",[31],0.73 µg/mL
